# Data taken from publication PMC3580866.
# Tests used:
# [1] = biological target: human SLBP (hSLBP), Stem-Loop Binding Protein RNA binding domain (RBD/RPD) (UniProt Q14493); test: mass spectrometry of oligomer peaks; details: reference: bacterially expressed unphosphorylated RBD; sites T171
# [2] = biological target: human SLBP RNA binding domain, phosphorylated at Thr171, baculovirus expressed (human); test: electrospray mass spectrometry
# [3] = biological target: human SLBP RNA binding domain, unphosphorylated, bacterially expressed (human); test: MALDI-TOF mass spectrometry
substance,measurement,setting,value
"human SLBP (hSLBP), Stem-Loop Binding Protein RNA binding domain (RBD/RPD) (from UniProt Q14493) baculovirus-expressed phosphorylated RBD",other: percent of mass as dimer,[1],weaker; reference 35.3
"human SLBP RNA binding domain, phosphorylated at Thr171, baculovirus expressed (domain or fragment)",percent of the mass spectrum as dimer,[2],5.6%
same,percent of the mass spectrum as tetramer,[2],3.8%
same,percent of the mass spectrum as trimer,[2],3.9%
"human SLBP RNA binding domain, unphosphorylated, bacterially expressed (domain or fragment)",percent of the mass spectrum as dimer,[3],35.3%
same,percent of the mass spectrum as hexamer,[3],9.7%
same,percent of the mass spectrum as tetramer,[3],12.4%
same,percent of the mass spectrum as trimer,[3],9.9%
